Measurements: article PMC4119751 (Biochemistry, 2013)
Where two headings read alike, the source gives them in different places. Bridge positions count the residues as written; N and C are the ends. Ends that are not written are not given here.

T1: 14-mer V3 peptide KRIHIGPGRAFYTT (MN sequence) (HIV-1 strain MN, V3 crown (peptide))
T1 chain: KRIHIGPGRAFYTT

T2: V3 peptide with Arg^315Gln mutation KRIHIGPGQAFYTT (HIV-1 strain MN, V3 crown, Arg315Gln …, point mutant)
T2 chain: KRIHIGPGQAFYTT


How the values were obtained:
wild type Fv 447–52D = assay: ITC, V3 peptide variants titrated into wild type Fv 447–52D; type: binding, human; conditions: linear and cyclic V3 with wild type Fv, ITC 25 °C
[1] = target: Env of HIV-1 SF162 on pseudovirus (HIV-1 strain SF162)
[2] = target: V3_(MNCYCLIC) 14mer peptide … (HIV-1 strain MN); assay: ITC
[3] = target: T1, 14-mer V3 peptide KRIHIGPGRAFYTT (MN …); assay: ITC
[4] = target: T1, 14-mer V3 peptide KRIHIGPGRAFYTT (MN …); assay: ITC
[5] = target: T1, 14-mer V3 peptide KRIHIGPGRAFYTT (MN …); assay: ITC
[6] = target: T2, V3 peptide with Arg^315Gln mutation …; assay: ITC
SF162 pseudovirus = assay: TZM-bl neutralization assay against SF162 pseudovirus; type: cell-based, HIV-1; conditions: Fv mutant vs wild type Fv

Row | Molecule | IC50 of neutralisation of SF162 pseudovirus, TZM-bl cells (luciferase) [1] [µM] | other [3] [kcal/mol] | Kd [4] [µM] | also measured
1 | CRIHIGPGRAFYTC (disulfide 1-14 (inferred)) [V3 Cyclic] | – | – | – | effect of cyclization on affinity (in words) (wild type Fv 447–52D): cyclization of the V3 crown did not affect much of its interaction with mAb 447–52D
2 | Fv 447–52D wild type | 19 | – | – | Kd [2]: 0.016 µM
3 | Fv 447–52D Tyr^H100JThr (other, human) VH: EVQLVESGGGLVKPGGSLRLTCVASGFTFSDVWLNWVRQAPGKGLEWVGRIKSRTDGGTTDYAASVKGRFTISRDDSKNTLYLQMNSLKTEDTAVYSCTTDGFIMIRGVSEDYYYTYMDVWGKGTTVTVSS VL: QSVLTQPPSVSAAPGQKVTISCSGSSSNIGNNYVLWYQQFPGTAPKLLIYGNNKRPSGIPDRFSGSKSGTSATLGITGLQTGDEADYFCATWDSGLSADWVFGGGTKLTVL | 23 | 3.3 | 1.3 | –
4 | Fv 447–52D Trp^H33Ala (other, human) VH: EVQLVESGGGLVKPGGSLRLTCVASGFTFSDVALNWVRQAPGKGLEWVGRIKSRTDGGTTDYAASVKGRFTISRDDSKNTLYLQMNSLKTEDTAVYSCTTDGFIMIRGVSEDYYYYYMDVWGKGTTVTVSS VL: QSVLTQPPSVSAAPGQKVTISCSGSSSNIGNNYVLWYQQFPGTAPKLLIYGNNKRPSGIPDRFSGSKSGTSATLGITGLQTGDEADYFCATWDSGLSADWVFGGGTKLTVL | 68 | 4.02 | 3.9 | –
5 | Fv 447–52D Asp^H95Asn (other, human) VH: EVQLVESGGGLVKPGGSLRLTCVASGFTFSDVWLNWVRQAPGKGLEWVGRIKSRTDGGTTDYAASVKGRFTISRDDSKNTLYLQMNSLKTEDTAVYSCTTNGFIMIRGVSEDYYYYYMDVWGKGTTVTVSS VL: QSVLTQPPSVSAAPGQKVTISCSGSSSNIGNNYVLWYQQFPGTAPKLLIYGNNKRPSGIPDRFSGSKSGTSATLGITGLQTGDEADYFCATWDSGLSADWVFGGGTKLTVL | 41 | 5.04 | 3.9 | –
6 | Fv 447–52D Trp^L96Ala (other, human) VH: EVQLVESGGGLVKPGGSLRLTCVASGFTFSDVWLNWVRQAPGKGLEWVGRIKSRTDGGTTDYAASVKGRFTISRDDSKNTLYLQMNSLKTEDTAVYSCTTDGFIMIRGVSEDYYYYYMDVWGKGTTVTVSS VL: QSVLTQPPSVSAAPGQKVTISCSGSSSNIGNNYVLWYQQFPGTAPKLLIYGNNKRPSGIPDRFSGSKSGTSATLGITGLQTGDEADYFCATWDSGLSADAVFGGGTKLTVL | 50 | 1.22 | – | Kd [5]: 1.8 µM
7 | Fv 447–52D wild type (other, human) VH: EVQLVESGGGLVKPGGSLRLTCVASGFTFSDVWLNWVRQAPGKGLEWVGRIKSRTDGGTTDYAASVKGRFTISRDDSKNTLYLQMNSLKTEDTAVYSCTTDGFIMIRGVSEDYYYYYMDVWGKGTTVTVSS VL: QSVLTQPPSVSAAPGQKVTISCSGSSSNIGNNYVLWYQQFPGTAPKLLIYGNNKRPSGIPDRFSGSKSGTSATLGITGLQTGDEADYFCATWDSGLSADWVFGGGTKLTVL | – | – | 0.023 | dH [3]: -8.54 kcal/mol; Kd [6]: 5.1 µM
8 | Fv 447–52D Trp^L91Ala (other, human) VH: EVQLVESGGGLVKPGGSLRLTCVASGFTFSDVWLNWVRQAPGKGLEWVGRIKSRTDGGTTDYAASVKGRFTISRDDSKNTLYLQMNSLKTEDTAVYSCTTDGFIMIRGVSEDYYYYYMDVWGKGTTVTVSS VL: QSVLTQPPSVSAAPGQKVTISCSGSSSNIGNNYVLWYQQFPGTAPKLLIYGNNKRPSGIPDRFSGSKSGTSATLGITGLQTGDEADYFCATADSGLSADWVFGGGTKLTVL | 76 | 4.72 | – | fold decrease in neutralization capability (SF162 pseudovirus): 4.0 fold; Kd [5]: 5.4 µM
